{"source": "paper PMC4141738", "biological_target": "endogenous PABPC1 of HEK 293T cells (human (endogenous in HEK 293T)) (UniProt P11940)", "sequence (P11940 whole entry, the tested form may be a part, canonical isoform)": "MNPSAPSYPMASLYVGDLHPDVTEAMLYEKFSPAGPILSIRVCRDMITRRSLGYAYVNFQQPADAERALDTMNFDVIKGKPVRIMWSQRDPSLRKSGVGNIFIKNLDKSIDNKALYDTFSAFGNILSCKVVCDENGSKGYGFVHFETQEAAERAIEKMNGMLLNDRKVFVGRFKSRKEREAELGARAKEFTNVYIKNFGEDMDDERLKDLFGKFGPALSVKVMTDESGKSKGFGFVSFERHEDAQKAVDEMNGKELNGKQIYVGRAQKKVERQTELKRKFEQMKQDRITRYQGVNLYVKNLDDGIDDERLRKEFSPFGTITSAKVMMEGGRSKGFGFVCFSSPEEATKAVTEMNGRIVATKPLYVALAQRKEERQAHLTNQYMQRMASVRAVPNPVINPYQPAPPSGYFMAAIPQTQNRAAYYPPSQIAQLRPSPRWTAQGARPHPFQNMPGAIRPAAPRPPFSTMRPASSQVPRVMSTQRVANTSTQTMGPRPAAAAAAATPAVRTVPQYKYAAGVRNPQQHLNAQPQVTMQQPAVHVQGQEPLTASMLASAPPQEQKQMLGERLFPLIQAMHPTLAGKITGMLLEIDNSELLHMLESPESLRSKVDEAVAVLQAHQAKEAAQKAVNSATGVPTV", "data": [{"substance": "eIF4GI isoform d fused to MS2-HA (eIF4GId-MS2) (natural protein)", "values": [{"measurement": "miniμ ter310 construct A reporter mRNA level (RT-qPCR) relative to LacZ-MS2 on tethering of eIF4GId-MS2 in HeLa cells", "value": 4, "unit": "fold"}]}, {"substance": "eIF4GI isoform e fused to MS2-HA (eIF4GIe-MS2) (natural protein)", "values": [{"measurement": "miniμ ter310 construct A reporter mRNA level (RT-qPCR) relative to LacZ-MS2 on tethering of eIF4GIe-MS2 in HeLa cells", "value": 4, "unit": "fold"}]}]}
